Substrate in the data set: O=C(O)CNC(=O)CNC(=O)CNC(=O)c1ccccc1
Kind of data set: ACE assay: hydrolysis of ^3H-HipGlyGly by human serum, Lineweaver-Burke Km. Type of data set: biochemical. As to conditions: other: human serum, pH 8.0, 37° C., 60 min. As for the experimental part:
The following sample illustrates the preferred assay method, the sensitivity of the assay and the Km for ^3 H-HipGlyGly. The reaction buffer contains 0.05 M Hepes, 0.1 M sodium chloride and 0.6 M sodium sulphate at pH 8.0. (Pepes is N-2-Hydroxyethyl piperazine N'-2-ethane sulfonic acid.) The substrate, ^3 H-HipGlyGly was dissolved in reaction buffer at a concentration of 16 mM and a specific radioactivity of about 0.15 millicuries/millimole. Serum was prepared from fresh whole blood by standard techniques. […] Hemolyzed samples were not used in the assay. Serum samples could be stored at least for one week at 2° C. to 8° C. or for at least 8 weeks frozen, prior to assaying. For the assay, 50 μl. of serum was diluted with 200 μl. of reaction buffer. […]
A control determination of background radioactivity was made using 50 μl. of reaction buffer instead of diluted serum in the reaction mixture. […] Total radioactivity was determined by counting an amount of substrate equal to that used in the reaction mixture directly in the scintillation counter.
Reaction velocity, in terms of nanomoles of product formed per minute per ml of serum was calculated according to the following formula: [formula] In this formula, "nmoles" means nanomoles, "min" means minutes, "ml" means milliliters and "cpm" means radioactivity counts per minute. […]

We go through 1 protein from patent US4251628A, “Substrates for angiotensin converting enzyme” (priority 1978, dated 1981).

The Km is the substrate concentration at which the rate is half of its maximum.

B1: angiotensin converting enzyme (ACE) (Homo sapiens) (protein)
chain: LDPGLQPGNFSADEAGAQLFAQSYNSSAEQVLFQSVAASWAHDTNITAENARRQEEAALLSQEFAEAWGQKAKELYEPIWQNFTDPQLRRIIGAVRTLGSANLPLAKRQQYNALLSNMSRIYSTAKVCLPNKTATCWSLDPDLTNILASSRSYAMLLFAWEGWHNAAGIPLKPLYEDFTALSNEAYKQDGFTDTGAYWRSWYNSPTFEDDLEHLYQQLEPLYLNLHAFVRRALHRRYGDRYINLRGPIPAHLLGDMWAQSWENIYDMVVPFPDKPNLDVTSTMLQQGWNATHMFRVAEEFFTSLELSPMPPEFWEGSMLEKPADGREVVCHASAWDFYNRKDFRIKQCTRVTMDQLSTVHHEMGHIQYYLQYKDLPVSLRRGANPGFHEAIGDVLALSVSTPEHLHKIGLLDRVTNDTESDINYLLKMALEKIAFLPFGYLVDQWRWGVFSGRTPPSRYNFDWWYLRTKYQGICPPVTRNETHFDAGAKFHVPNVTPYIRYFVSFVLQFQFHEALCKEAGYEGPLHQCDIYRSTKAGAKLRKVLQAGSSRPWQEVLKDMVGLDALDAQPLLKYFQPVTQWLQEQNQQNGEVLGWPEYQWHPPLPDNYPEGIDLVTDEAEASKFVEEYDRTSQVVWNEYAEANWNYNTNITTETSKILLQKNMQIANHTLKYGTQARKFDVNQLQNTTIKRIIKKVQDLERAALPAQELEEYNKILLDMETTYSVATVCHPNGSCLQLEPDLTNVMATSRKYEDLLWAWEGWRDKAGRAILQFYPKYVELINQAARLNGYVDAGDSWRSMYETPSLEQDLERLFQELQPLYLNLHAYVRRALHRHYGAQHINLEGPIPAHLLGNMWAQTWSNIYDLVVPFPSAPSMDTTEAMLKQGWTPRRMFKEADDFFTSLGLLPVPPEFWNKSMLEKPTDGREVVCHASAWDFYNGKDFRIKQCTTVNLEDLVVAHHEMGHIQYFMQYKDLPVALREGANPGFHEAIGDVLALSVSTPKHLHSLNLLSSEGGSDEHDINFLMKMALDKIAFIPFSYLVDQWRWRVFDGSITKENYNQEWWSLRLKYQGLCPPVPRTQGDFDPGAKFHIPSSVPYIRYFVSFIIQFQFHEALCQAAGHTGPLHKCDIYQSKEAGQRLATAMKLGFSRPWPEAMQLITGQPNMSASAMLSYFKPLLDWLRTENELHGEKLGWPQYNWTPNSAR
notes: Serum was prepared from fresh whole blood by standard techniques; from tissue; host or cells: serum (unfractionated)
On to B1, for which the Km worked out at 6.25 mM.
